Experimental data from paper PMC11096129.

Legend:
RAD52 NTD = target: T1, RAD52 NTD (Homo sapiens, UniProt P43351 1-209, del210-418); experiment: fluorescence anisotropy; 1 mM Mg(OAc)2; ring concentration (11-mer); FA: 25 mM HEPES pH 8.0, 0.2 M KOAc, 10% glycerol, 0.25 mM TCEP, 1 mM Mg(OAc)2, 0.01% Brij-35, 25 °C, 10 nM DNA; BLI: 25 mM HEPES pH 8.0, 200 mM KOAc, 0.01% Tween-20, 1 mM Mg(OAc)2, 0.25 mM TCEP, 25 °C; conditions: protein: recombinant; tags: none (tags removed); chain copies: 11; label: 5' 6-FAM; single strand
T1 sequence: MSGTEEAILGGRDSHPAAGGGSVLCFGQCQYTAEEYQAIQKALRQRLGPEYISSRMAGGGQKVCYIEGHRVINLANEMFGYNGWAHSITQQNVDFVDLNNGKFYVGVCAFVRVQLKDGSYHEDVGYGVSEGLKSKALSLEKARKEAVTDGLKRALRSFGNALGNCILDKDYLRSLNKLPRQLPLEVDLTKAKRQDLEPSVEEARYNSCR

RAD52-OR (open ring) = target: T2, RAD52-OR (open ring) (Homo sapiens, UniProt P43351 1-418); experiment: fluorescence anisotropy; 1 mM Mg(OAc)2; ring concentration (10-mer); FA: 25 mM HEPES pH 8.0, 0.2 M KOAc, 10% glycerol, 0.25 mM TCEP, 1 mM Mg(OAc)2, 0.01% Brij-35, 25 °C, 10 nM DNA; BLI: 25 mM HEPES pH 8.0, 200 mM KOAc, 0.01% Tween-20, 1 mM Mg(OAc)2, 0.25 mM TCEP, 25 °C; conditions: protein: recombinant; tags: none (tags removed); chain copies: 10; label: 5' 6-FAM; single strand
T2 sequence: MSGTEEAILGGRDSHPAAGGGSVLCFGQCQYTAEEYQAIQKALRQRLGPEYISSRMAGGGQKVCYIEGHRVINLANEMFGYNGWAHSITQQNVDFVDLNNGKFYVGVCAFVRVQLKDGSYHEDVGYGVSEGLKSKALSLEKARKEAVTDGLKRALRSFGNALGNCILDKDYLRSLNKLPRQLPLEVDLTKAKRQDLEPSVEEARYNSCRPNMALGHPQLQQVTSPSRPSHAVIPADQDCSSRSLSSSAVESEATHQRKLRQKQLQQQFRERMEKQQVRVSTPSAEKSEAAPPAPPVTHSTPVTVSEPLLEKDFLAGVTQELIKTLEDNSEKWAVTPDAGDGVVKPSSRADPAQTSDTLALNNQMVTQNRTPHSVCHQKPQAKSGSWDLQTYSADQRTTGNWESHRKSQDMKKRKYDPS

RAD52(∆RID) = target: T3, RAD52(∆RID) (Homo sapiens, UniProt P43351 1-418, del239-290); experiment: fluorescence anisotropy; 1 mM Mg(OAc)2; FA: 25 mM HEPES pH 8.0, 0.2 M KOAc, 10% glycerol, 0.25 mM TCEP, 1 mM Mg(OAc)2, 0.01% Brij-35, 25 °C, 10 nM DNA; BLI: 25 mM HEPES pH 8.0, 200 mM KOAc, 0.01% Tween-20, 1 mM Mg(OAc)2, 0.25 mM TCEP, 25 °C; conditions: protein: recombinant; tags: none (tags removed); label: 5' 6-FAM; single strand
T3 sequence: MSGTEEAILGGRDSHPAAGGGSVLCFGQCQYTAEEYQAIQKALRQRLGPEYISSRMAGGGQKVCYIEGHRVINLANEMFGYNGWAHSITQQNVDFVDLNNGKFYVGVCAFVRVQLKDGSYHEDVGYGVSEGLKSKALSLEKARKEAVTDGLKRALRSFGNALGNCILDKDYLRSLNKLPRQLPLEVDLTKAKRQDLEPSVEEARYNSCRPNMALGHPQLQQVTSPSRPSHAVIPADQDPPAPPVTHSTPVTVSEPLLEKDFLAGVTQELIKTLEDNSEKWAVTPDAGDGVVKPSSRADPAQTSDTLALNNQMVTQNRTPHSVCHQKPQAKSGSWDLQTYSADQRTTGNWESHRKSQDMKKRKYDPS

RAD52(∆C) = target: T4, RAD52(∆C) (Homo sapiens, UniProt P43351 1-400, del401-418); experiment: as above; conditions: protein: recombinant; tags: none (tags removed); chain copies: 11; label: 5' 6-FAM; single strand
T4 sequence: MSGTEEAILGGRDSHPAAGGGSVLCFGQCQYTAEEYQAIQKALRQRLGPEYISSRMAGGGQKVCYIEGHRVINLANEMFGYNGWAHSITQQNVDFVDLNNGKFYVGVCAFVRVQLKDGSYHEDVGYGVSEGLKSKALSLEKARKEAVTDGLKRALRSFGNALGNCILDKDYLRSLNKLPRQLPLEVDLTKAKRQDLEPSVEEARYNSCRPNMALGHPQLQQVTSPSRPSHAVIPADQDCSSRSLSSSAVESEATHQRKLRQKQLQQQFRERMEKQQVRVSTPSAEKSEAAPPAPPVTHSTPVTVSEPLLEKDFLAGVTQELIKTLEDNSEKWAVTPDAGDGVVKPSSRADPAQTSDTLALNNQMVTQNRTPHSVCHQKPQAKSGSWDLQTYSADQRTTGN

RPA [1] = target: T5, RPA (Homo sapiens, UniProt P27694;P15927;P35244 1-616;1-270;1-121); experiment: as above; conditions: protein: recombinant; tags: 10xHis on RPA3; copies: 1;1;1; label: 5' 6-FAM; single strand
T5 sequence (P27694 whole entry, chain 1 of 3): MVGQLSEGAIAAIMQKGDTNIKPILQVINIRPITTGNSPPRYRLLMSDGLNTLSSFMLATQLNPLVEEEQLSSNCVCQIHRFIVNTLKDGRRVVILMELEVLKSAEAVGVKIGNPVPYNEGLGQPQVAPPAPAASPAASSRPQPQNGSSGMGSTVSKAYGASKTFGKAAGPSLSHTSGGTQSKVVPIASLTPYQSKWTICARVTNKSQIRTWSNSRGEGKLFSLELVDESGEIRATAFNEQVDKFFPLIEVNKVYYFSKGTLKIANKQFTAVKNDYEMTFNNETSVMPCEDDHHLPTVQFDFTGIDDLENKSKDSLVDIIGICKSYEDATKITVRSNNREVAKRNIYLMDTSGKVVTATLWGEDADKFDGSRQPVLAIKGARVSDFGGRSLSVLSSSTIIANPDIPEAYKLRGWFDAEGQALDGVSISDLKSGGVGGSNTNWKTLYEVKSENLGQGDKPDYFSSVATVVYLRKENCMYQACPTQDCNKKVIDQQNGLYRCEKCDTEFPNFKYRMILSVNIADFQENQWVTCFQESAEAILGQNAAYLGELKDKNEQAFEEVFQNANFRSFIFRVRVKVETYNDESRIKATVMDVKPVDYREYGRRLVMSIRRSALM
T5 sequence (P15927 whole entry, chain 2 of 3): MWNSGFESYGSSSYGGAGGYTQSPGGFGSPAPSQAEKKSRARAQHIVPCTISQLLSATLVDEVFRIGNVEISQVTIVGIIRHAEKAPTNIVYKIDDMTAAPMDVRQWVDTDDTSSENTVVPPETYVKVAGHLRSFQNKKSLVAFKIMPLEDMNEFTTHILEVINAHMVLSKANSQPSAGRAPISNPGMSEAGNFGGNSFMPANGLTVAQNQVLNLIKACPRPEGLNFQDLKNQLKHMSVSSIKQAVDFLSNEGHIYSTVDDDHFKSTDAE
T5 sequence (P35244 whole entry, chain 3 of 3): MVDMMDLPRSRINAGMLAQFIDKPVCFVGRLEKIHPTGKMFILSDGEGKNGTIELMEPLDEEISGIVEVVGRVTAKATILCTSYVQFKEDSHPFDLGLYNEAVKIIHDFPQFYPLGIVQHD

RPA(∆WHD) = RPA(∆WHD) (Homo sapiens, UniProt P27694;P15927;P35244 1-616;1-206;1-121); experiment: as above; conditions: protein: recombinant; tags: 10xHis on RPA3; copies: 1;1;1; label: 5' 6-FAM; single strand
RPA(∆WHD), sequence (P27694 whole entry, chain 1 of 3): as the sequence (P27694 whole entry, chain 1 of 3) above
RPA(∆WHD), sequence (P15927 1-206, chain 2 of 3): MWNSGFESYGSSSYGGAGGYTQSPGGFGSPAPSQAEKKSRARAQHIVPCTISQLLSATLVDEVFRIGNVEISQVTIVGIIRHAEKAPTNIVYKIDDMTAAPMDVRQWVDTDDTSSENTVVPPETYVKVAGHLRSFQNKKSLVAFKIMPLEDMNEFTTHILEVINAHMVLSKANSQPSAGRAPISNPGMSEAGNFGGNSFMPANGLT
RPA(∆WHD), sequence (P35244 whole entry, chain 3 of 3): as the sequence (P35244 whole entry, chain 3 of 3) above

RPA [2] = target: T5, RPA; experiment: cryo-EM (3.2 Å, trimeric core); 2 mM Mg(OAc)2; FA: 25 mM HEPES pH 8.0, 0.2 M KOAc, 10% glycerol, 0.25 mM TCEP, 1 mM Mg(OAc)2, 0.01% Brij-35, 25 °C, 10 nM DNA; BLI: 25 mM HEPES pH 8.0, 200 mM KOAc, 0.01% Tween-20, 1 mM Mg(OAc)2, 0.25 mM TCEP, 25 °C; conditions: protein: recombinant; tags: 10xHis on RPA3; copies: 1;1;1; single strand

TATCGAATCCGTCTAGTCAACGCTGCCGAATTCTACCAGT (ssDNA) [FAM-SSA4 (40 nt)]
Kd (RAD52 NTD): 3.2 ± 0.6 nM
Kd (RAD52-OR (open ring)): 0.3 ± 0.1 nM
Kd (RAD52(∆RID)): 0.7 ± 0.2 nM
Kd (RAD52(∆C)): 0.2 ± 0.2 nM
Kd (RPA [1]): 3.6 ± 0.5 nM
Kd (RPA(∆WHD)): 3.4 ± 0.9 nM

CGGCAGCGTTGACTAGACGGATTCGATA (ssDNA) [SSA7 (28 nt)]
binding result (RPA [2]): binds
